In patent publication US12269859B2, “Synthetic immune receptors and methods of use thereof” (Angeles Therapeutics, Inc., priority 2016, dated 2025):

Tested on: target antigen-expressing cell line
Assay: Jurkat NFAT-GFP assay, coculture with target cell lines expressing the respective target antigen (summary Table 10A)
Type: cell-based, human
Parameters: key: The signs +/−, +, 2+ etc. after the name of the cell lines indicate the relative degree of positivity on the Jurkat-NFAT-GFP assay as measured by the % GFP positive cells; +: relative degree of positivity on the Jurkat-NFAT-GFP assay as measured by the % GFP positive cells; 2+: relative degree of positivity on the Jurkat-NFAT-GFP assay as measured by the % GFP positive cells
Details: relative % GFP positive cells; for NFAT-GFP ASSAY Positive Cell lines: NALM6: SIR-expressing Jurkat-NFAT-GFP cells cocultured with NALM6; for NFAT-GFP ASSAY Positive Cell lines: RAJI: SIR-expressing Jurkat-NFAT-GFP cells cocultured with RAJI
In short: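 Jurkat cells carrying an NFAT-driven GFP reporter and lentivirally expressing a SIR were cocultured with antigen-bearing target cells (E:T ~1:2) for about 4–18 h. GFP induction read by flow cytometry as % GFP+ cells, scored positive and graded (+/−, +, 2+) against parental Jurkat-NFAT-GFP cells.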

Molecule	NFAT-GFP ASSAY Positive Cell lines: NALM6	NFAT-GFP ASSAY Positive Cell lines: RAJI	NFAT-GFP ASSAY Positive Cell lines: L363 (SIR-expressing Jurkat-NFAT-GFP cells cocultured with L363)	NFAT-GFP ASSAY Positive Cell lines: U266 (SIR-expressing Jurkat-NFAT-GFP cells cocultured with U266)
030217-J05 (protein) MALPVTALLLPLALLLHAARPDEIVLTQSPATLSLSPGERATLSCSASSSVSYMHWYQQKPGQAPRLLIYDTSKLASGIPARFSGSGSGTDFTLTISSLEPEDVAVYYCFQGSVYPFTFGQGTKLEIKRGGGGSGGGGSGGGGSQVQLQESGPGLVKPSQTLSLTCTVSGGSISTSGMGVGWIRQHPGKGLEWIGHIWWDDDKRYNPALKSRVTISVDTSKNQFSLKLSSVTAADTAVYYCARMELWSYYFDYWGQGTLVTVSSLEGKPIPNPLLGLDSTGSGEDLKNVFPPEVAVFEPSKAEIAHTQKATLVCLATGFYPDHVELSWWVNGKEVHSGVCTDPQPLKEQPALNDSRYCLSSRLRVSATFWQNPRNHFRCQVQFYGLSENDEWTQDRAKPVTQIVSAEAWGRADCGITSASYHQGVLSATILYEILLGKATLYAVLVSALVLMAMVKRKDSRGRAKRSGSGATNFSLLKQAGDVEENPGPTSMALPVTALLLPLALLLHAARPDIQMTQSPASLSASVGETVTIICRASVNIYSYLAWYQQKQGKSPQLLVYNAKILAEGVPSRFSGSGSGTQFSLKINSLQPEDFGSYYCQHHYGTFTFGSGTKLEIKRGGGGSGGGGSGGGGSQVQLKESGPGLVAPSQSLSITCTISGFSLTSYGVHWVRQPPGKGLEWLVVIWSDGSTTYNSALKSRLSISKDNSKSQVFLKMNSLQTDDTAIYYCASHYGSTLAFASWGHGTLVTVSAATREQKLISEEDGSGIQNPDPAVYQLRDSKSSDKSVCLFTDFDSQTNVSQSKDSDVYITDKCVLDMRSMDFKSNSAVAWSNKSDFACANAFNNSIIPEDTFFPSSDVPCDVKLVEKSFETDTNLNFQNLSVIGFRILLLKVAGFNLLMTLRLWSSRAKRSGSGVKQTLNFDLLKLAGDVESNPGPSRGHMTEYKPTVRLATRDDVPRAVRTLAAAFADYPATRHTVDPDRHIERVTELQELFLTRVGLDIGKVWVADDGAAVAVWTTPESVEAGAVFAEIGPRMAELSGSRLAAQQQMEGLLAPHRPKEPAWFLATVGVSPDHQGKGLGSAVVLPGVEAAERAGVPAFLETSAPRNLPFYERLGFTVTADVEVPEGPRTWCMTRKPGA	(+/−)	RAJI (2+), NALM6	–	–
030217-G04 (protein) MALPVTALLLPLALLLHAARPDEIVLTQSPATLSLSPGERATLSCSASSSVSYMHWYQQKPGQAPRLLIYDTSKLASGIPARFSGSGSGTDFTLTISSLEPEDVAVYYCFQGSVYPFTFGQGTKLEIKRGGGGSGGGGSGGGGSQVQLQESGPGLVKPSQTLSLTCTVSGGSISTSGMGVGWIRQHPGKGLEWIGHIWWDDDKRYNPALKSRVTISVDTSKNQFSLKLSSVTAADTAVYYCARMELWSYYFDYWGQGTLVTVSSLEGKPIPNPLLGLDSTGSGEDLKNVFPPEVAVFEPSKAEIAHTQKATLVCLATGFYPDHVELSWWVNGKEVHSGVCTDPQPLKEQPALNDSRYCLSSRLRVSATFWQNPRNHFRCQVQFYGLSENDEWTQDRAKPVTQIVSAEAWGRADCGITSASYHQGVLSATILYEILLGKATLYAVLVSALVLMAMVKRKDSRGRAKRSGSGATNFSLLKQAGDVEENPGPTSMALPVTALLLPLALLLHAARPDDIVMTQSPDSLTVSLGERTTINCKSSQSVLDSSKNKNSLAWYQQKPGQPPKLLLSWASTRESGIPDRFSGSGSGTDFTLTIDSLQPEDSATYYCQQSAHFPITFGQGTRLEIKGGGGSGGGGSGGGGSQVQLVQSGAEVKKPGASVKVSCKASGYTFTNYGMNWVKQAPGQGLKWMGWINTYTGEPTYADDFKGRVTMTSDTSTSTAYLELHNLRSDDTAVYYCARWSWSDGYYVYFDYWGQGTTVTVSSTREQKLISEEDGSGIQNPDPAVYQLRDSKSSDKSVCLFTDFDSQTNVSQSKDSDVYITDKCVLDMRSMDFKSNSAVAWSNKSDFACANAFNNSIIPEDTFFPSSDVPCDVKLVEKSFETDTNLNFQNLSVIGFRILLLKVAGFNLLMTLRLWSSRAKRSGSGVKQTLNFDLLKLAGDVESNPGPSRGHMTEYKPTVRLATRDDVPRAVRTLAAAFADYPATRHTVDPDRHIERVTELQELFLTRVGLDIGKVWVADDGAAVAVWTTPESVEAGAVFAEIGPRMAELSGSRLAAQQQMEGLLAPHRPKEPAWFLATVGVSPDHQGKGLGSAVVLPGVEAAERAGVPAFLETSAPRNLPFYERLGFTVTADVEVPEGPRTWCMTRKPGA	RAJI (+), NALM6 (+)	RAJI (+), NALM6 (+)	–	–
041216 G04 (protein, Synthetic polynucleotide encoding a SIR) MALPVTALLLPLALLLHAARPDEIVLTQSPATLSLSPGERATLSCSASSSVSYMHWYQQKPGQAPRLLIYDTSKLASGIPARFSGSGSGTDFTLTISSLEPEDVAVYYCFQGSVYPFTFGQGTKLEIKRGGGGSGGGGSGGGGSQVQLQESGPGLVKPSQTLSLTCTVSGGSISTSGMGVGWIRQHPGKGLEWIGHIWWDDDKRYNPALKSRVTISVDTSKNQFSLKLSSVTAADTAVYYCARMELWSYYFDYWGQGTLVTVSSLEGKPIPNPLLGLDSTGSGEDLKNVFPPEVAVFEPSKAEIAHTQKATLVCLATGFYPDHVELSWWVNGKEVHSGVCTDPQPLKEQPALNDSRYCLSSRLRVSATFWQNPRNHFRCQVQFYGLSENDEWTQDRAKPVTQIVSAEAWGRADCGITSASYHQGVLSATILYEILLGKATLYAVLVSALVLMAMVKRKDSRGRAKRSGSGATNFSLLKQAGDVEENPGPTSMDWIWRILFLVGAATGAHSFEVQLVESGGGLVQAGGSLRLSCAASGSIFSGNVMGWYRRQAPGKEREWVAAIASGGSIYYRDSVKGRFTISRDNAKNTVYLQMNSLKPEDTAVYYCNSHPPTLPYWGLGTQVTVSSTREQKLISEEDGSGIQNPDPAVYQLRDSKSSDKSVCLFTDFDSQTNVSQSKDSDVYITDKCVLDMRSMDFKSNSAVAWSNKSDFACANAFNNSIIPEDTFFPSSDVPCDVKLVEKSFETDTNLNFQNLSVIGFRILLLKVAGFNLLMTLRLWSSRAKRSGSGVKQTLNFDLLKLAGDVESNPGPSRGHMTEYKPTVRLATRDDVPRAVRTLAAAFADYPATRHTVDPDRHIERVTELQELFLTRVGLDIGKVWVADDGAAVAVWTTPESVEAGAVFAEIGPRMAELSGSRLAAQQQMEGLLAPHRPKEPAWFLATVGVSPDHQGKGLGSAVVLPGVEAAERAGVPAFLETSAPRNLPFYERLGFTVTADVEVPEGPRTWCMTRKPGA	–	RAJI (+/−)	–	–
030217-H02 (protein) MALPVTALLLPLALLLHAARPDEIVLTQSPATLSLSPGERATLSCSASSSVSYMHWYQQKPGQAPRLLIYDTSKLASGIPARFSGSGSGTDFTLTISSLEPEDVAVYYCFQGSVYPFTFGQGTKLEIKRGGGGSGGGGSGGGGSQVQLQESGPGLVKPSQTLSLTCTVSGGSISTSGMGVGWIRQHPGKGLEWIGHIWWDDDKRYNPALKSRVTISVDTSKNQFSLKLSSVTAADTAVYYCARMELWSYYFDYWGQGTLVTVSSLEGKPIPNPLLGLDSTGSGEDLKNVFPPEVAVFEPSKAEIAHTQKATLVCLATGFYPDHVELSWWVNGKEVHSGVCTDPQPLKEQPALNDSRYCLSSRLRVSATFWQNPRNHFRCQVQFYGLSENDEWTQDRAKPVTQIVSAEAWGRADCGITSASYHQGVLSATILYEILLGKATLYAVLVSALVLMAMVKRKDSRGRAKRSGSGATNFSLLKQAGDVEENPGPTSMALPVTALLLPLALLLHAARPDIQMTQSTSSLSASLGDRVTISCSASQGINNYLNWYQQKPDGTVELLIYYTSTLQSGVPSRFSGSGSGTDYSLTISNLEPEDIGTYYCQQYSKLPRTFGGGTKLEIKGGGGSGGGGSGGGGSQVQLQQSGSELMMPGASVKISCKATGYTFSNYWIEWVKQRPGHGLEWIGEILPGTGRTIYNEKFKGKATFTADISSNTVQMQLSSLTSEDSAVYYCARRDYYGNFYYAMDYWGQGTSVTVSSTREQKLISEEDGSGIQNPDPAVYQLRDSKSSDKSVCLFTDFDSQTNVSQSKDSDVYITDKCVLDMRSMDFKSNSAVAWSNKSDFACANAFNNSIIPEDTFFPSSDVPCDVKLVEKSFETDTNLNFQNLSVIGFRILLLKVAGFNLLMTLRLWSSRAKRSGSGVKQTLNFDLLKLAGDVESNPGPSRGHMTEYKPTVRLATRDDVPRAVRTLAAAFADYPATRHTVDPDRHIERVTELQELFLTRVGLDIGKVWVADDGAAVAVWTTPESVEAGAVFAEIGPRMAELSGSRLAAQQQMEGLLAPHRPKEPAWFLATVGVSPDHQGKGLGSAVVLPGVEAAERAGVPAFLETSAPRNLPFYERLGFTVTADVEVPEGPRTWCMTRKPGA	(+)	RAJI (2+), NALM6	–	–
040716-I04 (protein, Synthetic polynucleotide encoding a SIR) MALPVTALLLPLALLLHAARPDEIVLTQSPATLSLSPGERATLSCSASSSVSYMHWYQQKPGQAPRLLIYDTSKLASGIPARFSGSGSGTDFTLTISSLEPEDVAVYYCFQGSVYPFTFGQGTKLEIKRGGGGSGGGGSGGGGSQVQLQESGPGLVKPSQTLSLTCTVSGGSISTSGMGVGWIRQHPGKGLEWIGHIWWDDDKRYNPALKSRVTISVDTSKNQFSLKLSSVTAADTAVYYCARMELWSYYFDYWGQGTLVTVSSLEGKPIPNPLLGLDSTGSGEDLKNVFPPEVAVFEPSKAEIAHTQKATLVCLATGFYPDHVELSWWVNGKEVHSGVCTDPQPLKEQPALNDSRYCLSSRLRVSATFWQNPRNHFRCQVQFYGLSENDEWTQDRAKPVTQIVSAEAWGRADCGITSASYHQGVLSATILYEILLGKATLYAVLVSALVLMAMVKRKDSRGRAKRSGSGATNFSLLKQAGDVEENPGPTSTMALPVTALLLPLALLLHAARPDIVMTQTPLTLSVTIGQPASISCKSSQSLLDSDGKTYLNWLLQRPGQSPERLIYLVSKLDSGVPDRFTGSGSGTDFTLKISRVEAEDLGVYCCWQGTHFPYTFGGGTKVEIKGGGGGSGGGGSGGGGSQVQLQQPGAELVRPGASVKLSCKASGYTFTSYWMNWVKQRPGQGLEWIGMIDPSDSETHYNHIFKDKATLTVDKSSSTAYLQLSSLTSEDSAVYYCARNLYLWGQGTSVTVSSTREQKLISEEDGSGIQNPDPAVYQLRDSKSSDKSVCLFTDFDSQTNVSQSKDSDVYITDKCVLDMRSMDFKSNSAVAWSNKSDFACANAFNNSIIPEDTFFPSSDVPCDVKLVEKSFETDTNLNFQNLSVIGFRILLLKVAGFNLLMTLRLWSSRAKRSGSGVKQTLNFDLLKLAGDVESNPGPSRGHMTEYKPTVRLATRDDVPRAVRTLAAAFADYPATRHTVDPDRHIERVTELQELFLTRVGLDIGKVWVADDGAAVAVWTTPESVEAGAVFAEIGPRMAELSGSRLAAQQQMEGLLAPHRPKEPAWFLATVGVSPDHQGKGLGSAVVLPGVEAAERAGVPAFLETSAPRNLPFYERLGFTVTADVEVPEGPRTWCMTRKPGA	–	RAJI (+/−), U266	(+/−), L363 (+/−)	(+/−), L363 (+/−)
